In article PMC8201801 (Proceedings of the National Academy of Sciences of the …, 2021):

Biological target: T1, Canine parvovirus (CPV) capsid (Canine parvovirus type 2 (CPV-2), …)
T1 chain: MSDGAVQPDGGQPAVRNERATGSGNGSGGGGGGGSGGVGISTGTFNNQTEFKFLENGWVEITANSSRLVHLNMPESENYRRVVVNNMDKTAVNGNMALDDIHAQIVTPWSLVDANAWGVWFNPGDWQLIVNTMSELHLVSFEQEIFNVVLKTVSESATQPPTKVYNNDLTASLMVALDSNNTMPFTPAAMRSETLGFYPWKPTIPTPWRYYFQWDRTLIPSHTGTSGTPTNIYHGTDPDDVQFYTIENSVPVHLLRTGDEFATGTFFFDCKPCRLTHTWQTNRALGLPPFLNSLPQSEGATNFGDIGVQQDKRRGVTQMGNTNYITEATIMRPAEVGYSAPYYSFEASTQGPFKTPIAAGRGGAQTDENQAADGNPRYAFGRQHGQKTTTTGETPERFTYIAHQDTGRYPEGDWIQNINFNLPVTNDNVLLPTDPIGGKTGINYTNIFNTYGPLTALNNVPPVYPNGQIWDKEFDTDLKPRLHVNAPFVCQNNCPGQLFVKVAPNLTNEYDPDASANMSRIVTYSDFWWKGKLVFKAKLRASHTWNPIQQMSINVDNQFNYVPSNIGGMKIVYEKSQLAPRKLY
Assay: cryo-EM structure

B1: Fab of MAb 14 (Fab 14) (Fab, V domains shown)
VH: AVHLQGTELVKPGASAGVKLSCKASGYTFTNYDMNWVRQRPEQGLEWIGWIFPGDGSTRYNEKFKGKATLTTDKSSSTAYQLNRLTSEDSAVYFCARRGSHGSYSFAYWGQGTLVTVSG
VL: DIVMTQSHKFMSTSVGDRVSITCKASQDVNTALAWYQQIPGQSPKLLIYSASNRYTGVPDRFTASGSGTDFTFTISSVQAEDLALYYCQQHYTTPWTFGGGTKLEIK
stoichiometry N: ~60 Fab per capsid
